Two molecules from publication PMC6232587, “Human RNA cap1 methyltransferase CMTr1 cooperates with RNA helicase DHX15 to modify RNAs with highly structured 5′ termini” (Philosophical Transactions of the Royal Society B: …, 2018) can be followed below.

The chains are these.
B1: Recombinant DHX15 with His-tag (enzyme, human, UniProt O43143 1-795, looked up)
chain: MSKRHRLDLGEDYPSGKKRAGTDGKDRDRDRDREDRSKDRDRERDRGDREREREKEKEKELRASTNAMLISAGLPPLKASHSAHSTHSAHSTHSTHSAHSTHAGHAGHTSLPQCINPFTNLPHTPRYYDILKKRLQLPVWEYKDRFTDILVRHQSFVLVGETGSGKTTQIPQWCVEYMRSLPGPKRGVACTQPRRVAAMSVAQRVADEMDVMLGQEVGYSIRFEDCSSAKTILKYMTDGMLLREAMNDPLLERYGVIILDEAHERTLATDILMGVLKEVVRQRSDLKVIVMSATLDAGKFQIYFDNCPLLTIPGRTHPVEIFYTPEPERDYLEAAIRTVIQIHMCEEEEGDLLLFLTGQEEIDEACKRIKREVDDLGPEVGDIKIIPLYSTLPPQQQQRIFEPPPPKKQNGAIGRKVVVSTNIAETSLTIDGVVFVIDPGFAKQKVYNPRIRVESLLVTAISKASAQQRAGRAGRTRPGKCFRLYTEKAYKTEMQDNTYPEILRSNLGSVVLQLKKLGIDDLVHFDFMDPPAPETLMRALELLNYLAALNDDGDLTELGSMMAEFPLDPQLAKMVIASCDYNCSNEVLSITAMLSVPQCFVRPTEAKKAADEAKMRFAHIDGDHLTLLNVYHAFKQNHESVQWCYDNFINYRSLMSADNVRQQLSRIMDRFNLPRRSTDFTSRDYYINIRKALVTGYFMQVAHLERTGHYLTVKDNQVVQLHPSTVLDHKPEWVLYNEFVLTTKNYIRTCTDIKPEWLVKIAPQYYDMSNFPQCEAKRQLDRIIAKLQSKEYSQY
notes: ATP-dependent RNA helicase DHX15, human, from the full-length cDNA, cloned into pET28; The cloning paragraph says C-terminal His-tag; also called His-DHX15; DHX15 helicase; not shown: His-tag, C-terminal, kept
B2: CMTr1 full-length, purified from insect cells (enzyme, human, UniProt Q8N1G2 1-835, looked up)
chain: MKRRTDPECTAPIKKQKKRVAELALSLSSTSDDEPPSSVSHGAKASTTSLSGSDSETEGKQHSSDSFDDAFKADSLVEGTSSRYSMYNSVSQKLMAKMGFREGEGLGKYSQGRKDIVEASSQKGRRGLGLTLRGFDQELNVDWRDEPEPSACEQVSWFPECTTEIPDTQEMSDWMVVGKRKMIIEDETEFCGEELLHSVLQCKSVFDVLDGEEMRRARTRANPYEMIRGVFFLNRAAMKMANMDFVFDRMFTNPRDSYGKPLVKDREAELLYFADVCAGPGGFSEYVLWRKKWHAKGFGMTLKGPNDFKLEDFYSASSELFEPYYGEGGIDGDGDITRPENISAFRNFVLDNTDRKGVHFLMADGGFSVEGQENLQEILSKQLLLCQFLMALSIVRTGGHFICKTFDLFTPFSVGLVYLLYCCFERVCLFKPITSRPANSERYVVCKGLKVGIDDVRDYLFAVNIKLNQLRNTDSDVNLVVPLEVIKGDHEFTDYMIRSNESHCSLQIKALAKIHAFVQDTTLSEPRQAEIRKECLRLWGIPDQARVAPSSSDPKSKFFELIQGTEIDIFSYKPTLLTSKTLEKIRPVFDYRCMVSGSEQKFLIGLGKSQIYTWDGRQSDRWIKLDLKTELPRDTLLSVEIVHELKGEGKAQRKISAIHILDVLVLNGTDVREQHFNQRIQLAEKFVKAVSKPSRPDMNPIRVKEVYRLEEMEKIFVRLEMKIIKGSSGTPKLSYTGRDDRHFVPMGLYIVRTVNEPWTMGFSKSFKKKFFYNKKTKDSTFDLPADSIAPFHICYYGRLFWEWGDGIRVHDSQKPQDQDKLSKEDVLSFIQMHRA

In experiment [1] the target is B2. The experiment is described as follows: pull-down; purified His-DHX15 and CMTr1 mixed in BDHX buffer (20 mM Tris-HCl pH 8, 70 mM KCl, 3 mM MgCl2, 5 mM DTT, 100 µM ATP), on ice for 10 min; complexes captured on nickel-charged agarose beads. The following applies: both partners purified.
In experiment [2] the target is B1. In words: cell-based or functional assay.

As to B1, the binding result in experiment [1] is reported as “binds”.
Turning to B2, the “CMTr1 methyltransferase activity towards RNA92 and RNA68 substrates with equimolar DHX15, in comparison with CMTr1 alone” value in experiment [2] is above 3 fold.
